The nature of this data set: yeast display, Sf9 membrane polyspecificity reagent, FACS + sequencing; frameworks hold sequencing errors. The procedure, abridged:
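Sorting gates, low and high (top ~1%), were placed on anti-HA fluorescence to track expression and on streptavidin fluorescence to track reagent binding. A clone's polyreactivity label is taken from the gate it came out of. The reagent was 10% biotinylated, detergent-solubilized Sf9 membrane, applied for 1 hour at 4 °C to galactose-induced yeast display cells.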
For the sequence “QVQLVESGGGLVQAGGSLRLSCAASGNTFDIYAMGWYRQAPGKERELVAAISRRGGSTYYADSVKGRFTISRDNAKNTVYLQMNSLKPEDTAVYYCNTYSGPYSISDYWGQGTQVTVSS”, the “polyreactivity (PSR sort gate)” value is on record as “high polyreactivity”. With “QVQLVESGGGLVQAGGSLRLSCAASGNTFDIYTMGWYRPAPGKERELVATISSGGRTNYADSVKGRFTISRDNAKNTVYLQMNSLNPEDTAVYYCAKNLRYVWWYDHFRPYGYWGQGTQVTVSS” the entry was “high polyreactivity”; with “QVQLVESGGGLVQAGGSLRLSCAASGNTFDVYVMGWYRQAPGKERELVAAINKGGGRTYYADSVKGRFTISRDNAKNTVYLQMNSLKPEDTAVYYCAAVSPKYESSYYYWGQGTQVTVSS”, “high polyreactivity”. The same measure for “QVQLVESGGGLVQAGGSLRLSCAASGNTFEHYAMGWYRQAPGKERELVAAISYSGGSTYYADSVKGRFTISRDNAKNTVYLQMNSLKPEDTAVYYCNARGRASATGRRGRPDPFGYWGQGTQVTVSS”: “high polyreactivity”; for “QVQLVESGGGLVQAGGSLRLSCAASGNTFFDNAMGWYRQAPGKERELVAAITFSGGSTYYADSVKGRFTISRDNAKNTVYLQMNSLKPEDTAVYYCAAVIRSRYSYYEYDYWGQGTQVTVSS”: “high polyreactivity”; for “QVQLVESGGGLVQAGGSLRLSCAASGNTFFLNAMGWYRQAPGKERELVAAITSSGGSTYYADSVKGRFTISRDNAKNTVYLQMNSLKPEDTAVYYCATDRSYPPRSLNRRGPYEYWGQGTQVTVSS”: “low polyreactivity”.

In the case of “QVQLVESGGGLVQAGGSLRLSCAASGNTFFRYAMGWYRQAPGKERELVAAISKSGGSTYYADSVKGRFTISRDNAKNTVYLQMNSLKPEDTAVYYCAAYSPYGRYDYWGQGTQVTVSS”, the “polyreactivity (PSR sort gate)” value is recorded as “high polyreactivity”. The same measure for “QVQLVESGGGLVQAGGSLRLSCAASGNTFGFNAMGWYTQAPGKERELVAAIRRGSGRTYYADSVKGRFTISRDNAKNTVYLQMNSLKPEDTAVYYCAAAPTTGKRPGYYYWGLGTQVTVSS”: “high polyreactivity”; for “QVQLVESGGGLVQAGGSLRLSCAASGNTFGGYAMGWYRQAPGKERELVATISYADSVKGRFTISRDNAKNTVYLQMNSLKPEDTAVYYCNKQFGYPWEYYSYSYDYWGQGTQVTVSS”: “low polyreactivity”; for “QVQLVESGGGLVQAGGSLRLSCAASGNTFGLYAMGWYIQAPGKERELVAAIRRGGRTYADSVKGRFTISRDNAKNTVYGQMNSLKPEDTAVYYCAAYYVFLDNDYWGQGSQVTVSS”: “high polyreactivity”.

Regarding “QVQLVESGGGLVQAGGSLRLSCAASGNTFGNYGMGWYRQAPGKEREFVAAITSRGTSTYYADSVKGRFTISRDNAKNTVYLQMNSLKPEDTAVYYCNARPRYKYPRYDYWVQGTQVTVSS”, the “polyreactivity (PSR sort gate)” value is reported as “high polyreactivity”. Regarding “QVQLVESGGGLVQAGGSLRLSCAASGNTFGTYVMGWYRPAPGKERELVAAISQSGGSTDYADSVKGRFTISRDNAKKTVYLQMNSLKPEDTAVYYCAKVTWGTVWYRSPSEYDYWGQGTQVTVSS”, the “polyreactivity (PSR sort gate)” value was “low polyreactivity”.

Consider “QVQLVESGGGLVQAGGSLRLSCAASGNTFHPYAMGWYRQAPGKERELVAAITKSGGSTYYADSVKGRFTISRDNAKNTVYLQMNSLKPEDTAFYYCAAESYIEYYLKYDYWGQGSQVTVSS”, for which the “polyreactivity (PSR sort gate)” value is on record as “low polyreactivity”. With “QVQLVESGGGLVQAGGSLRLSCAASGNTFIYYAMGWYRQAPGKERELVAAISRSGGSTYYADSVKGRFTISRDNAKNTVYLQMNSLKPEDTAVYYCAAEATKWIGVVTMDYWGQGTQVTVSS” the entry was “high polyreactivity”; with “QVQLVESGGGLVQAGGSLRLSCAASGNTFKGYAMGSYRPAPGKERELVAAISWSGSSTYYADSVKGRFTISRDNAKNTVYLQMNSLKPEDTAVYYCAKAFKYTSPRRPYDYWGQGTQVTVSS”, “high polyreactivity”; with “QVQLVESGGGLVQAGGSLRLSCAASGNTFKYYVMGWYRQAPGKERELVAAITRGGSTYYADSVKGRFTISRDNAKNTVYLQMNSLKPEDTAVYYCATDVKIPNFDYWGQGTQVTVSS”, “high polyreactivity”. With “QVQLVESGGGLVQAGGSLRLSCAASGNTFLPNAMGWYRQAPGKERELVAAISNSGGSTYYADSVKGRFTISRDNAKNTVYLQMNSLKPEDTAVYYCAKRQWFPYYRGRDYWGQGTQVTVSS”, the “polyreactivity (PSR sort gate)” value is “high polyreactivity”. On to “QVQLVESGGGLVQAGGSLRLSCAASGNTFNDYAMGWYRQAPGKERELVASISSGGSTYYADSVKGRFTISRDNAKNTVYLQMNSLKPEDTAVYYCAAEWHYIYAYDYWGQGTQVTVSS”, for which the “polyreactivity (PSR sort gate)” value was “low polyreactivity”.

Consider “QVQLVESGGGLVQAGGSLRLSCAASGNTFNSYAMGWYRQAPGKEREFVAAISGSGSSTYYADSVKGRFTISRDNAKNTVYLQMNSLKPEDTAVYYCAARWRYYGSFDYWGQGTQVTVSS”, for which the “polyreactivity (PSR sort gate)” value was “high polyreactivity”. With “QVQLVESGGGLVQAGGSLRLSCAASGNTFNVYAMGWYRQAPGKERELVAAITLSGGSTYYADSVKGRFTISRDNEKNTVYLQMNSLKPEDTAVYYCNAEEDGTDYDYWGQGTQVTVSS” the entry was “low polyreactivity”; with “QVQLVESGGGLVQAGGSLRLSCAASGNTFPGYAMGWYRQAPGKEREFVATITSNDGTTYYADSVKGRFTISRDNAKNTVYLQMNSLKPEDTAVYYSAKRLSDSWPPNWGYNYWGQGTQVTVTS”, “low polyreactivity”. As for “QVQLVESGGGLVQAGGSLRLSCAASGNTFPVNAMGWYRQAPGKERDLVAAISRTGASTYYADSVKGRITISRDNAKNTVYLQMNSLKPEDTAVYYCAKYLKTPHNRRRVEALGYWGQGTQVTVSS”, the “polyreactivity (PSR sort gate)” value was “high polyreactivity”. Take “QVQLVESGGGLVQAGGSLRLSCAASGNTFQYYAMGWYRQAPGKEREFVAAISRRGGSTYYADSVKGRFTISRDNAKNTVYLQMNSLKPEDTAVYYCNKVIFLSQSSYSFHYAYDYWGQGTQVTVSS”: the “polyreactivity (PSR sort gate)” value is “high polyreactivity”. For “QVQLVESGGGLVQAGGSLRLSCAASGNTFRFYTMGWYRQAPGKERELVAAINSSGRTNYADSVKGRFTISRDNAKNTVYLQMNSLKPEDTAVYYCAATVWVYRRSRDYWGQGTQVTVSS”, the “polyreactivity (PSR sort gate)” value is reported as “low polyreactivity”.

As to “QVQLVESGGGLVQAGGSLRLSCAASGNTFRIYAMGWYRQAPGKERELVAAISQSGGSTYYADSVKVRFTISRDNAKYTVYLQMNSLKPEDTAVYYCQLIRRGHDYWGQGTQVTVSS”, the “polyreactivity (PSR sort gate)” value was “high polyreactivity”. The same measure for “QVQLVESGGGLVQAGGSLRLSCAASGNTFRRNVMGWYRQAPGKERELVAAINRGGSTTYADSVKGRFTISRDNAKNTVFLQMNSLKPEDTAVYYCNAEKRGQSYRFDYWGQGTQVTVSS”: “high polyreactivity”; for “QVQLVESGGGLVQAGGSLRLSCAASGNTFRRYAMGWYRQAPGKEREFVAAISSSGGRTYYADSVKGRFTISRDNAKNTVYLQMNSLKPEDTAVYYCNAVSYWVRGEMDYWGQGTQVTVSS”: “high polyreactivity”; for “QVQLVESGGGLVQAGGSLRLSCAASGNTFRWYVMGWYRQAPGKERELVAAITSSGSTTYYADSVKGRFSISRDNAKNTVYLQMNSLKPEDTAVYYCAARNYGPYDYWGQGTQVTVSS”: “low polyreactivity”. As for “QVQLVESGGGLVQAGGSLRLSCAASGNTFRYYAMGWYRQAPGKERELLAAINSRGGTTSYADSVKGRFTISRDNAKNTVYLQMNSLKPEDTAVYYCNKYIRYPFKRYGYWGQGTQVTVSS”, the “polyreactivity (PSR sort gate)” value was “high polyreactivity”. With “QVQLVESGGGLVQAGGSLRLSCAASGNTFSISAMGWYRLAPGKERELVAAISLSGGSTYYADSVKGRFTISRDNAKNTVYLQMNSLKPEDTAVYYCAADVFTARRRYDYWGQGTQLTVSS” the entry was “low polyreactivity”; with “QVQLVESGGGLVQAGGSLRLSCAASGNTFSWYAMGWYRQAPGKERELVAVITSGGSTNYADSVKGRFTISRDNAKNTVYLQMNSLKPEDTAVYYCNKGLSRSYWWVDYWGQGTQVTVSS”, “low polyreactivity”. The same measure for “QVQLVESGGGLVQAGGSLRLSCAASGNTFSYYAMGRYRQSPGKEREFVAAIRKSGASTYYADTVKGRFTISRDNAKNTVYLQINSLKPEDTALYYCAADGQVSYALGFDYWGQGTQVTVSS”: “high polyreactivity”; for “QVQLVESGGGLVQAGGSLRLSCAASGNTFTRNAMGWYRQAPGKERELVAAITGRGGTYYADSVKGRFTISRDNAKNTVYLQMNSLKPEDTAVYYCAAASVTRRDLDYWGQGTQVTVSS”: “high polyreactivity”; for “QVQLVESGGGLVQAGGSLRLSCAASGNTFTYYAMGWYRQAPGKERELVAAINIDVASTYYADSVKGRFTISRDNAKNTVYLQMNSLKPEDTAVYYCAAEVGVYPVYWYDYWGQGTQVTVSS”: “low polyreactivity”.

Consider “QVQLVESGGGLVQAGGSLRLSCAASGNTFVANDMGWYRQAPGKERELVAVISGSGGDTYYADSVKGRFTISRDNAKNTVYLQMNSLKPEDTAVYYFAADWYGRETDRSDSDYEYWGQGTKVTVSS”, for which the “polyreactivity (PSR sort gate)” value is recorded as “low polyreactivity”. The same measure for “QVQLVESGGGLVQAGGSLRLSCAASGNTFVINTMGWYRQAPGKERELVAGISRRGTSTYYEDSVKGRFTISRDNAKNSVYLQMNSLKPEDTEVYYCAVYSEIVRYEYWGQGTQVTVSS”: “high polyreactivity”. Take “QVQLVESGGGLVQAGGSLRLSCAASGNTFVLYAMGWYRQAPGKERELVAAINNGGSTYADSVKGRFTISRDNAKNTVYLQMNSLKPEDTAVYYCAARYQVGVYWRRYYWGQGTQVTVSS”: the “polyreactivity (PSR sort gate)” value was “high polyreactivity”.

In the case of “QVQLVESGGGLVQAGGSLRLSCAASGNTFVPYAMGWYRQAPGKERELVAAISWRGGSTYYADSVKGRFTISRDNAKNTVYLQMNSLKPEDTAVYYCAARTFYRPGLAGGYWGQGTQVTVSS”, the “polyreactivity (PSR sort gate)” value is “high polyreactivity”. The same measure for “QVQLVESGGGLVQAGGSLRLSCAASGNTFVRNAMGWYRQAPGKERELVASISQSGGTTYYADSVKGRFTISRDNAKNTVYLQMNSLKPEDTAVYYCNAARYRRSPGHTKYNYWGQGTQVTVSS”: “high polyreactivity”; for “QVQLVESGGGLVQAGGSLRLSCAASGNTFVRNVMGWYRQAPGKERELVAAITWRSVRTYYADSVKGRFTISRDTAKNTVYLQMNSLKPEDTAVYYCAAASASRHGEYDYWGQGTQVTVSS”: “low polyreactivity”; for “QVQLVESGGGLVQAGGSLRLSCAASGNTFVSNARGWYSQAPGKEREWVAAIDSGGSTNYADSVKGRFTISRDNAKNTDYLQMNSLKPEDTAVYYCNRTSVYYYYWGQGTQVTVSS”: “low polyreactivity”.

For the origin of these results see the nanobody polyreactivity screen of Harvey et al. (2022).
